Literature values as cited in PMC6944378.
pKd: −log10 of the molar value.

Molecular target: MASP-2 (Homo sapiens) (UniProt O00187)
Assay: SPR

Chain of MASP-2 (Homo sapiens) (O00187 16-686): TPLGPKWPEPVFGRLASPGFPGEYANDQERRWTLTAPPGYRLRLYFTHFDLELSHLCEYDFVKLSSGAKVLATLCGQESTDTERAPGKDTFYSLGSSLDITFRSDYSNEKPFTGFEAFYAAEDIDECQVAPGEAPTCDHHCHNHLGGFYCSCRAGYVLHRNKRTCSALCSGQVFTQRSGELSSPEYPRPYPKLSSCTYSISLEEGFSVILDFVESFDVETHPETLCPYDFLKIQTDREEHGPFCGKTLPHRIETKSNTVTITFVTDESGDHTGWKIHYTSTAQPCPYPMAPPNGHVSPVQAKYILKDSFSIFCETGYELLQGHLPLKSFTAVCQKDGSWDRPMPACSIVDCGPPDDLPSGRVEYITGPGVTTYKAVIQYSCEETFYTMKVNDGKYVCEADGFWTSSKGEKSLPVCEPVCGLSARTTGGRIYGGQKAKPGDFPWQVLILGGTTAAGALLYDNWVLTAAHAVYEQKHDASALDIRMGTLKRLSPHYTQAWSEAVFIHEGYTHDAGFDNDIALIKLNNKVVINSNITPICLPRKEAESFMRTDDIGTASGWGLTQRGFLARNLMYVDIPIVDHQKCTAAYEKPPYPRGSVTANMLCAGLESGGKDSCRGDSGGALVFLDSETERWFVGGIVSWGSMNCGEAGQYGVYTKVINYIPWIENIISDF

ecotin (from UniProt P23827)
pKd: 7.61
